Experimental data taken from the nanobody polyreactivity screen of Harvey et al. (2022).

Experiment: yeast display, Sf9 membrane polyspecificity reagent, FACS + sequencing; frameworks hold sequencing errors
Method in brief: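 Sorting gates, low and high (top ~1%), were placed on anti-HA fluorescence to track expression and on streptavidin fluorescence to track reagent binding. A clone's polyreactivity label is taken from the gate it came out of. The reagent was 10% biotinylated, detergent-solubilized Sf9 membrane, applied for 1 hour at 4 °C to galactose-induced yeast display cells.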

Row | Sequence | polyreactivity (PSR sort gate)
1 | QVQLVESGGGLVQAGGSLRLTCAASGFTFRYYAMGWYRQAPGKERELVASITGGGRTYYADSVKGRFTISRDNAKNTVYLQMNSLKPEDTAVYYCATLLAYRLGSGYDSWGQGTEVTVSS | high polyreactivity
2 | QVQLVESGGGLVQAGGSLRLSCAASGSTFYLYAMGWYRQAPGKEREFVAAISWSGGRTYYADSVKGRFTISRDNAKNTVYLQMNSLKPEYTAVYYCAARRRYTWQYTRYDMGYWGQGTQVTVSS | low polyreactivity
3 | QVLLVEAGRGLVQAGGSLRLSCAASGSIVVGYAMGCYRQAPGKERELVATISYSGDSTYYADSVKGRFTISRDNAKNTVYLQMNSLNPEDSAVYYCATESNGSPYKGDYWGQGTQVTVSS | low polyreactivity
4 | QVQLVESGGGLLQAGGSLRLSCAASVSIFSIYAMGWYRQAPGKERELVAAITLGGGSTYYADSVKGRFTISRDNAKNTVYLQMNCLTPEDTAVYYCAASSVYGYSYWGQGTQVTVSS | high polyreactivity
5 | QVQLVESGGGLVQAGGSLRLSCAASGFILQGYAMGWYRQAPGKERELVATITTSSRTYYADSVKGRFTISRDNAKNTVYLQMNRLKPEDTAVYYCDKSVYPYGYYYGQMDYWGQGTQVTVSS | high polyreactivity
6 | QVQLVESGGGLVQAGGSLRLSCAASGSTFHRNAMGWYRQAPGKERELVAAISFSGGRTYYADSVKGRFTISRDNAKNTVYLQMNSLKPEDTAVYYCAAVTASPGSYPDDYWGQGTQVTVSS | low polyreactivity
7 | QVQLVESGGGLVQAGGSLRLSCAASGRTFGGYAMGWYRQAPGKESELVARISRSGGSTYYADSVKGRFTISRDNAKNTVYLQMNSLKPEDTAVYYCNTGLRNAYGWPQDDYWGQGTQVTVSS | low polyreactivity
8 | QVQLVESVGGLVQAGGSLRLSCAASGRIYAMGLYRPAPGKERELVAAISRGGSTYYADSVKGRFTISRDNAKNTVYLQMNSLKPEDSAVYYCARRYASTGYDYWGQGTQVTESS | high polyreactivity
9 | QVQLLESGGGLVPAGGSLRLSCAASGYIFHRYAMGWSRQAPGKERELVAAITWTGARTYYADSVKGRFTISRDNAKNTVYLQMNSLKPEDTAVYYAGPASYSFAKSGYWGQGTQVTVSS | high polyreactivity
10 | QVQLVESGGGLVQAGGSLRLSCAASGSIFVFYAMGWYRQAPGKERELVASITRSGVSTYYADSVKGRFTISRDNAKNTVYLQMNSLKPEDTAVYYCNVYKGNVVEHDYWGQGTQVTVSS | high polyreactivity
11 | QVQLVESGGGLVQAGGSLRLSCAASGIIFGDYAMGWYRQAPGKERELVAGISITGDSTYYADSVKGRFTISRDNAKNTVYLQMNSLKPEDTAVSYCAAGWALIFDYWGQGTQVTVSS | low polyreactivity
12 | QVQLVESGGGLVQAGGSLRLSCAPSGRIFWYNAMGWYRQAPGKERELVAGISSSGTRTYYADSVKGRFTISRDNAKNTVYLQMNSLKPEDTAVYYCAAGYDLSYYWYDYWGQGTQVTVSS | low polyreactivity
13 | QVQLVESGGGLVQAGGSLRLSCDASGRICGTNAMGWYRQAPGKERELVADITSGGSTNYADSVKGRFTISRDYAKNTVYVQMNSLKPEDTAVYYCAADVIGDLRWYRDEYWGQGTQVTVSS | low polyreactivity
14 | QVQLVESGGGLVLAGGSLRLSCAASGSIFDDNAMGWYIQAPGKERELVAANTVSTDTTYYADSVKGRFTISRDIAKNTVSLLMNSLKPEDTAVYYCAAEGPGYGPTGDFYWYTYYYWGQGTQVTVSS | low polyreactivity
15 | QVQLVESGGGLVQAGGSLRFSCAASGITIRFYAMGWYRQAPGKERELVAAITRGGSTTYAHSVKGRFTISRDNAKNTVYLQMNSLKPEDTEVSYCNAQYQSGYYTSYPDRFDTWGQGTQVTVSS | low polyreactivity
16 | QVQLQVSGGGLVQAGGSLRLSCAACGSNFLTAEMGWYLQAPGKERELVAAIATGTSTNYADSVKGRFTISRDNAKNTVYLQMNSLKREDTALYYCATYHYWGQGTQVTVSS | low polyreactivity
17 | QVQLVESGGGLVQAGGSLRLSCAASGSTFGTYAMGWYRQATGKERELVAAISRGVSTYYADSVKGRFTISRDKAKNTVYLEMNSLKPEDTAVYYCAADPFWQTVYVYYTYSGTSYYWGQGTQVTVSS | low polyreactivity
18 | QVQLVESGGGLVQAGGSLRLSCAASGRIFTYYAMGWYRQAPGKERELVAAITSRGGRTYYADSVKGRFTISRDNAKNTVYLQMNSLKPEDTAVYYCNVDRWRRTISHDIYGYWGQGTQVTVSS | high polyreactivity
19 | QVQLVESGGGLVQARGSLRLSWAASGIIFALYAMGWSRQAPGKERELVAAISSDGITKYADSVKGRFTISRDNAKNPDYLQMNSLKPEDTAVYYCAADGYPGDYDYWGQGTQVTVSS | low polyreactivity
20 | QVQLVESGGGLVQAGGSLRLSCAASGNIFRRYAMGWYRQAPGKERELVAAITWSGGSTYYADSVKGRFTISRDNAKNTVYLQMNSLKPEDTAVYYCAARRFWHYGYPGAYIGFGYWGQGTQVTVSS | high polyreactivity
21 | QVQLVESGGGLVQAGGSLRLSCAASGSTIIYYAMGWYRQAPGKESELVATISTSGTSTYYADSVKGRFTISRDNAKNTVYLQMNSLKPEDTAVYYCNAVHRNWRQKFDYWGQGTQVTVSS | high polyreactivity
22 | QVQLVESGGGLVQAGGSLRLSCAASGSTFTQYAMGWYRQAPGKERELVAAINSRGDSTYYADSVKGRFTISRDNAKNTVYLQMNSLKPEDTAVYYCAATGYLSYYQQDLWLEYYYWGQGTQVTVSS | low polyreactivity

Row | Sequence | polyreactivity (PSR sort gate)
23 | QVQLVESGGGLVQAGGSLRLSCAASGFTLAYNTMGWYRQAPGKERELVASITSSGTSTYYADSVKGRFTISRDNAKNTVYLQMNSLKPPDTAVYYCAASIWLRYHWGYDYWGQGTQVTVSS | high polyreactivity
24 | QVQLVESGGGLVQAGGSLRLSCAASGRILAYYAMGWYRQAPGKERELVDAINRSGVRTYYADSVKGRFTISRDYAKNTVYLQMNSLKPEDTAVYYCAAPGQHSWGQGTQVTVSS | high polyreactivity
25 | QVQLVESGGGLVQAGGSLRLSCAASGSIFRLYAKGWYIQAPGKERELVAAISSGGSTYYADSVKGRFTISRDNAKNTVYLQMNSLKPEDTAVYYCNTAWTYWRYDYWGQGTQVTVSS | high polyreactivity
26 | QVQLVESGGGLVQAGGSLRLSCAASGITFNPYVMGWYRQAPGKERELVAVITSGGSTNYADSVKGRFTISRDNAKITVYLEMNSLKPEDTAVYYCNVDRRPYYVWRVTYDYWGQGTQVTVSS | low polyreactivity
27 | QVQLVESGGGLVQAGGSLRLSCAASGFTFALYAMGWYRQAPGKERELVAAITSGGSTNYADSVKGRFTISRDNAKNTVYLLMNSLKPEDTAVYYCAAVPYYRYYSLKGRNNYNYWGQGTQVTVSS | high polyreactivity
28 | QVQLVESGGGLVQAGGSLRLSCAASGSTFDLNAMGWYRQAPGKERELVARISSVGSTNYADSVKGRFTISRDNAKNTVYLQMNSLKPEDTAVYYCNAGFWDLYDYWGQGTQVTVSS | low polyreactivity
29 | QDQLVESRGGLVQAGGRLRLSCAASGSIFASNTIGWYRQAPGKEREVVAGITKIGSSTYYADSVKGRFTISRDNAKNTVYLQMNSLKPEDTAVYYCNAYGPNIYSARYDYWGQGTQVTVSS | low polyreactivity
30 | QVQLVESGGGLDQAGGSLRLSCAASGITFTVNARGWYREAPGKERELVAGITWSGGSTYYADSVKGRFTISRDNAKNTVYLQMNSLKPEDTAVYYCNADSDGFWSIYDYWGQGTQVTVSS | low polyreactivity
31 | QVQIVESCGALVQAGRSLSLSCAASGSTFWDNVMGSYRQAPGKERELVAASTSGGSTNYADSVKGRFTISRDNAMNTDYLQLNSLIPEDTAVYYCAAGWYLYVLPYRYYYWRQGTQVTVSS | low polyreactivity
32 | QVQLVESGGGLVQAGGSLRLSCAASGFIFRYYAMGWYRQAPGKEREFVAGITGTGGSTYYADSVKGRFTISRDNAKNTVYLQMNSLKPEDTAVYYCAADLWYFSSRVRYGYWGQGTQVTVSS | high polyreactivity
33 | QVQLVESGGGLVQAGGSLRLRCAASGRTFHAYVMGWYIQAPVKERELVADISSGGDTYADSVKGRFTISRDNAKNTVYLQMNSLKPEDTAVYYCAVDLIQDESGYWGQGTQVTVSS | low polyreactivity
34 | QVQLVESGGGLVQAGGSLRLSCAAYGLTFDSYAMGWYRQAPGKERELVAAISYGGGSTNFADSVKGRFTISRDNAKNTVYLQLNSLKPVDTAVYYCGAEPGYYDEYGYWGQGTQVTVSS | low polyreactivity
35 | QVQLVESGGGLVQAGGSLRLSCAASGFIFGKYAMGWYRQAPRKERELGAAISKSGGSTYYADSVKGRFTISRDNAKNTVYLQMNSLKPEDTAVYYCAARSLGHYGSWGQGTQVTVSS | high polyreactivity
36 | QVQLVESGGGLVQAGGSLRLSCAASGGIFEAYVMGWYRHAPGKERELVAAISFRGGSTYYADSVKGRFTISRDNAKNTVYLQMNSLKPEDTAVYYCAADYRHQGYDYWGQGTQVTVSS | low polyreactivity
37 | QVQLVESGGGIVQAGGSLRLSCAASGRIFGGNAMGWYRQAPGKERELVADISYGGGSTNYADSVKGRFTISRDNAKNTVYLQMNSLKPVDTAVYYCARDAWNTDGAYIGGDYDYWGQGTQVNVSS | low polyreactivity
38 | QVQLVESGGGLVQAGGSLRLSCAASGSTFRGYAMGSYRQAPGKETELVATITSGGSTNYADSVKGRFTISRDNAKNTVSLQMNSLKPEDTAVYYCNARWVPSYWKYFHANYGYWGQGTQVTVSS | high polyreactivity
39 | QVQLVESGGGIVQAGGSLRLSCAASGSTFVDNAMGWYRQAPGKERELVAAITTSVGSTYYADSVKGRFTISRDNAKNTVYLQMNSLKPEDTAVYYCAATVFSTYPYGYGSTFVRDDYWGQGTQVTVSS | low polyreactivity
40 | QVQLVESGGGLVQAGGSLRLSCAASGRTFQSYAMGWYRQAPGKERELVAAITITGGRTYYADSVKGRFTISRDNAKNTVYLQMNSLKPEDTAVYYCADYDYWGQGTQVTVSS | low polyreactivity
41 | QVQLVESGGGLVQAGGSLRLSCAASGFIFGHNAMGWYRQAPGKERELVADITWSGGSTYYADSVKGRFTISRDNAKNTVYLQMNSLKPEDTAVYYCNARGRASATGRRGRPDPFGYWGQGTQVTVSS | high polyreactivity
42 | QVQLVESGGGLVQAGGSLRLSCAASGSTFTPNDMGWYRQAPGKERELVAAINSGGGRTYYADSVKGRFTISRDNAKNTVYLQMNSLKPEDTAVYYCAKRLYISGYGYGYWGQGTQVTVSS | high polyreactivity
43 | QVQLVESGGGLVQAGGSLRLSCAATGRTFINYAMGWYRQAPGKERALVAAITTGGRTNYADSVKGRFTISRDNAKNTVYLQMNSLKPEDTAVFYCAADRYYWGRYTLNYWGQGTQVTVSS | low polyreactivity
